Values joined by “and” are separate entries in the source; they are usually repeats but may differ in a detail not shown here. Equal entries are not always repeated.
Experiments:
[1] = target: human CD276 protein (human) (UniProt Q5ZPR3); assay: cell-based or functional assay
[2] = target: human CD276 protein (human) (UniProt Q5ZPR3); assay: FACS on SKOV3 cells

Chain of human CD276 protein (human) (Q5ZPR3 29-534): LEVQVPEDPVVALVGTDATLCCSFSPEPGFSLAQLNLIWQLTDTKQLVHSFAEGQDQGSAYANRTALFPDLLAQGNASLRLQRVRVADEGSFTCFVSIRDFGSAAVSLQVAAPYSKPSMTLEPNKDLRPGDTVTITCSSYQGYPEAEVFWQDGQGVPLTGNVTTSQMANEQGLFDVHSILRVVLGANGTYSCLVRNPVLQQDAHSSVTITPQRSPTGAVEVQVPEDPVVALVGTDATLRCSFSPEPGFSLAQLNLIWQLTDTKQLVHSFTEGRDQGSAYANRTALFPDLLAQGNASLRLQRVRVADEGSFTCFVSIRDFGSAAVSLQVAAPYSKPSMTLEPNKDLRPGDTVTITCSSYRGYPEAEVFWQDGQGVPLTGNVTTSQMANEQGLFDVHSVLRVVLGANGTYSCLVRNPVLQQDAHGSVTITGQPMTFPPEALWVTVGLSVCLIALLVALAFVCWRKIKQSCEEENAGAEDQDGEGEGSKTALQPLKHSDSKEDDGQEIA

Substance | EC50 of antibody induced CDC effect [1] | Top cytotoxicity (%), CDC [1] | MFI (Max) [2]
MGA271-WT Fc (antibody) | 8.91 nM and 9.64 nM | 19.6% and 19.8% | 
igG (antibody) |  |  | 115

— patent US20240400689A1
